Values joined by “and” are separate entries in the source; they are usually repeats but may differ in a detail not shown here. Identical values can stand only once.
Experiments:
[1] = target: T1, human CCR8 (human, UniProt P51685 1-355); experiment: cell-based or functional assay
[2] = target: T1, human CCR8; experiment: cell-based or functional assay; remark: listed apart in the source
[3] = target: T1, human CCR8; experiment: flow cytometry, human activated T cells
Description: (§1) Briefly, 1·10⁵ cells per well in a 96 well plate were incubated with a dilution of unconjugated anti-CCR8 mAb at 10 μg/mL then diluted at 1/3.33, 4 dilution points (during 30 min at 4° C.). […] To determine EC50 value, 8 concentrations of anti-CCR8 mAb were tested. Unbound antibodies were washed away with PBS (Invitrogen by Thermofisher Scientific, Illkirch-Graffenstaden, France) supplemented by 2% Fetal Bovine Serum (Invitrogen by Thermofisher Scientific, Illkirch-Graffenstaden, France) and 2 mM EDTA (Invitrogen by Thermofisher Scientific, Illkirch-Graffenstaden, France). Subsequently, cells are centrifuged (5 min at 400 g) and bound antibody is detected with F(ab′)₂-Goat anti-Mouse IgG (H+L) Cross-Adsorbed Secondary Antibody, Alexa Fluor 488 (dilution 1/500) (Invitrogen by Thermofisher Scientific, Illkirch-Graffenstaden, France) or with F(ab′)₂-Goat anti-Human IgG Fc Secondary Antibody, PE (Invitrogen by Thermofisher Scientific, Illkirch-Graffenstaden, France) (dilution 1/1000) at 4° C. for 30 min. Detection reagent is washed away and cells are centrifuged (5 min at 400 g) and resuspended in 30 μL PBS. Bound detection antibody is quantified on a MacsQuant16 (Miltenyi, Gladbach, Germany) (B1 or B2 channel, 5000 events per acquisition).
(§2) Binding characteristics of anti-CCR8 mAb cellular reactivity was further investigated by testing their binding to activated T cells.

[4] = target: T1, human CCR8; experiment: cell-based or functional assay; remark: listed apart in the source
[5] = target: T1, human CCR8; experiment: flow cytometry, HUT78 cells (native CCR8)
[6] = target: T1, human CCR8; experiment: competition HTRF on HEK-293 cells with hCCR8; blocked ligand CCL1-AF647 [cont.]
[7] = target: T1, human CCR8; experiment: cell-based or functional assay; remark: listed apart in the source
[8] = target: T1, human CCR8; experiment: flow cytometry, human activated T cells pre-incubated with 200 nM hCCL1
Description: as §1, §2

[9] = target: T1, human CCR8; experiment: flow cytometry, hCCR8 transfected CHOK1 cells
Description: as §1
EC50 values were not constantly determined in the same experiments.

B1: 3-82 (antibody, human IgG1, kappa, V domains shown)
VH: QVQLVESGGGVVQPGRSLRLSCAASGFTFSNYRMHWVRQAPGKGLEWIAVIKVKSDNYGANYADSVKGRFTISRDNSKNTLYLQMNSLRAEDTAVYYCSSPTYPGSSGFAYWGQGTLVTVSS
VL: DIQMTQSPSSLSASVGDRVTITCRASQDISNYLNWYQQKPDGTVKLLIYYTSRLHTGVPSRFSGSGSGTDYTLTISNLQQEDIATYFCQQGNKFPPTFGGGTKVEINR
notes: humanized, human IgG1 kappa
Top plateau value (% of hCCL1 100 nM) with 5 µg/mL mAb, Protocol #3 [1]: 794% | hCCL1 (100 nM) residual response, Protocol #2, mAb 0.08 µg/mL [2]: 85% | hCCL1 (100 nM) residual response, Protocol #2, mAb 0.4 µg/mL [2]: 94% | hCCL1 (100 nM) residual response, Protocol #2, mAb 10 µg/mL [2]: 60% | hCCL1 (100 nM) residual response, Protocol #3, mAb 0.05 µg/mL [2]: 93% | hCCL1 (100 nM) residual response, Protocol #3, mAb 0.5 µg/mL [2]: 85% | hCCL1 (100 nM) residual response, Protocol #3, mAb 5 µg/mL [2]: 62% | % of labelled cells [3]: 63% | ADCC % Max lysis, NK cells Donor 3 [4]: 16% | ADCC % Max lysis, NK cells Donor 4 [4]: 19% | ADCC EC50, NK cells Donor 3 [4]: 349 pM | ADCC EC50, NK cells Donor 4 [4]: 1910 pM | % of labelled cells [5]: 93% | IC50 (read off the curve) [6]: ~0.02 µg/mL | IC50 (Gi2 BRET, pH 6.5) [7]: 0.018 µg/ml and 0.12 nM | IC50 (Gi2 BRET, pH 7.4) [7]: 0.02 µg/ml and 0.134 nM | % of labelled cells [8]: 54% | EC50 [9]: 100 pM
